One molecule from patent US20200308281A1 (KITE PHARMA, published 2020) can be followed below.

The assay deals with T1, alpha chain of the constant region of the murine T cell receptor (TCR) (murine, UniProt P01849 1-136).
T1 construct: Endogenous protein in mouse spleen tissue; The variable parts and the beta chains are those of the tissue's T cells and are not defined; also called mouse spleen TCR
T1 TCR alpha (looked up): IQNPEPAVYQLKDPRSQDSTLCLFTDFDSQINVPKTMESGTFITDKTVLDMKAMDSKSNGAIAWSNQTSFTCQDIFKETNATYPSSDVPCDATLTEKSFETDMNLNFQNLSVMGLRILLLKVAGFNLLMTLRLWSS
Nature of the assay: immunohistochemistry on FFPE section of mouse spleen. As to the method:
The candidate antibodies were screened for their utility in immunohistochemistry. Specimens were sectioned at 4 micron thickness, mounted onto positive-charged glass slides, dried, baked, deparaffinized, and rehydrated. Following rehydration, tissue sections were incubated in Envision Peroxidase (Dako) for 5 minutes to quench endogenous peroxidase. Sections underwent heat-induced epitope retrieval using high-pH buffer for 40 minutes in a water bath set to 95° C. followed by a rinse in neutral buffer. Slides were incubated with antibody or negative reagent control diluted in diluent for 30 minutes. Slides were then rinsed twice in buffer for 5 minutes each followed by detection using the Envision+Rabbit HRP Detection Kit (Dako) for 30 minutes. Slides were rinsed twice with buffer for 5 minutes each followed by incubation with DAB (Dako) for 5 minutes. Slides were rinsed with water, counterstained with hematoxylin, blued in ammonia water, dehydrated through graded alcohols, cleared in xylene, and coverslipped. As shown in FIGS. 5A-E, E7 TCR-transduced, Peripheral blood mononuclear cells (PBMCs) transduced with the MAGE A3/A6 TCR, and FFPE section of mouse spleen stain with the exemplary mAb clone 39 (KIP-8) antibody described herein. […] Normal mouse spleen sections stain with KIP-8 further indicating its specificity for the murine alpha constant sequence.

B1: KIP-8 antibody (mAb clone 39; Clone 39-4) (antibody, V domains shown)
VH: QEQLVESGGGLVQPEGSLTLTCTASGFDLGNNWIHWVRHAPGKGLEWIACVSGSSGNIYYATWAKGRFTMSKASSTTVTLRMTSLTAADTATYFCARGWNLWGPGTLVTVSS
VL: AQVLTQTPASVSAAVGGTVTINCQASQSVYSSNLLTWYQKKPGQPPKLLIYEASKLPSGIPSRFSGSGSGTQFTLTISDVQCADAATYYCLGIYDCVLADCQAFGGGTEVVVKG
notes: Rabbit monoclonal antibody; also called clone 39 (KIP-8); Clone 39-4 vh1
Regarding B1, the binding result is given as “binds”.
